Experiments:
[1] = molecular target: 32P-labeled mtRNAP (Figure 5C; truncation not stated) (human) (UniProt O00411); assay: cross-linking
610Bpa-mtRNAP (human) = 610Bpa-mtRNAP (human) (UniProt O00411); assay: cross-linking
[2] = molecular target: Δ150 mtRNAP (human mitochondrial RNA polymerase) (human, UniProt O00411 151-1230); assay: crystal structure
crystal structure = molecular target: the molecule itself; assay: crystal structure
SEC = molecular target: the molecule itself; assay: SEC
[3] = molecular target: mtRNAP Δ150;TEFM Δ135 (CTD + linker) (human;human, UniProt O00411;Q96QE5 151-1230;136-360, |); assay: crystal structure
mtRNAP Δ150;TEFM Δ135 (CTD + linker), sequence (O00411 151-1230, stated change not applied, one chain of several): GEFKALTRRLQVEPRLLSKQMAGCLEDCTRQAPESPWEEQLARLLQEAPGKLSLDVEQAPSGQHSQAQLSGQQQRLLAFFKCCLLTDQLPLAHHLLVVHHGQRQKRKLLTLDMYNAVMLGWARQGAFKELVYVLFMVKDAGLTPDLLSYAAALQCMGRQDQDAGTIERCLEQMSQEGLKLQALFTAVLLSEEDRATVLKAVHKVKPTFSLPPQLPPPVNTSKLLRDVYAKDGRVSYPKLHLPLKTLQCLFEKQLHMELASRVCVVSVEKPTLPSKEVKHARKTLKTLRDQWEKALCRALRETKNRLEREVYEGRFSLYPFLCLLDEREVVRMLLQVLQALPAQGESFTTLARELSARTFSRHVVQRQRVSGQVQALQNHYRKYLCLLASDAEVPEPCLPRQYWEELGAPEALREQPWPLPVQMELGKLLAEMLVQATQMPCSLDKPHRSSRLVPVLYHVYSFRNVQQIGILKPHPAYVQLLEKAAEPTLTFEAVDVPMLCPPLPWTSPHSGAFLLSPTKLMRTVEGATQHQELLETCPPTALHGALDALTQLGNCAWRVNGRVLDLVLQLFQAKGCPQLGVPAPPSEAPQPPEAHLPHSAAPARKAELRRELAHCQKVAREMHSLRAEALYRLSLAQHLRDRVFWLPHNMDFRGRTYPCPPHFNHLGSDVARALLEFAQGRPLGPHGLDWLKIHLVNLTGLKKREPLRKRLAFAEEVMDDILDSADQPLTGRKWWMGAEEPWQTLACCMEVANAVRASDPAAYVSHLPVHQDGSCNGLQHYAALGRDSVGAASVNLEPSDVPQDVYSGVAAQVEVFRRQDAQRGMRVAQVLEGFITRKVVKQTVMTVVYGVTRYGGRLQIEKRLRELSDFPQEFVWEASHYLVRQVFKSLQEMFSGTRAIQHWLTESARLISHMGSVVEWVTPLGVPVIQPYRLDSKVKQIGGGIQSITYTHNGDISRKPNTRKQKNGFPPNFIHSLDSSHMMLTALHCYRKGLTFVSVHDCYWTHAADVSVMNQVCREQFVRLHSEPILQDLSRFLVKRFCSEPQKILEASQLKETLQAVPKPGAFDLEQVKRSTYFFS

mtRNAP Δ150;TEFM WT = mtRNAP Δ150;TEFM WT (human;human, UniProt O00411;Q96QE5 151-1230;36-360, |); assay: size exclusion chromatography
mtRNAP Δ150;TEFM WT, sequence (O00411 151-1230, stated change not applied, one chain of several): as above

32P-labeled mtRNAP (Figure 5C; truncation not stated) (human), sequence (O00411 42-1230): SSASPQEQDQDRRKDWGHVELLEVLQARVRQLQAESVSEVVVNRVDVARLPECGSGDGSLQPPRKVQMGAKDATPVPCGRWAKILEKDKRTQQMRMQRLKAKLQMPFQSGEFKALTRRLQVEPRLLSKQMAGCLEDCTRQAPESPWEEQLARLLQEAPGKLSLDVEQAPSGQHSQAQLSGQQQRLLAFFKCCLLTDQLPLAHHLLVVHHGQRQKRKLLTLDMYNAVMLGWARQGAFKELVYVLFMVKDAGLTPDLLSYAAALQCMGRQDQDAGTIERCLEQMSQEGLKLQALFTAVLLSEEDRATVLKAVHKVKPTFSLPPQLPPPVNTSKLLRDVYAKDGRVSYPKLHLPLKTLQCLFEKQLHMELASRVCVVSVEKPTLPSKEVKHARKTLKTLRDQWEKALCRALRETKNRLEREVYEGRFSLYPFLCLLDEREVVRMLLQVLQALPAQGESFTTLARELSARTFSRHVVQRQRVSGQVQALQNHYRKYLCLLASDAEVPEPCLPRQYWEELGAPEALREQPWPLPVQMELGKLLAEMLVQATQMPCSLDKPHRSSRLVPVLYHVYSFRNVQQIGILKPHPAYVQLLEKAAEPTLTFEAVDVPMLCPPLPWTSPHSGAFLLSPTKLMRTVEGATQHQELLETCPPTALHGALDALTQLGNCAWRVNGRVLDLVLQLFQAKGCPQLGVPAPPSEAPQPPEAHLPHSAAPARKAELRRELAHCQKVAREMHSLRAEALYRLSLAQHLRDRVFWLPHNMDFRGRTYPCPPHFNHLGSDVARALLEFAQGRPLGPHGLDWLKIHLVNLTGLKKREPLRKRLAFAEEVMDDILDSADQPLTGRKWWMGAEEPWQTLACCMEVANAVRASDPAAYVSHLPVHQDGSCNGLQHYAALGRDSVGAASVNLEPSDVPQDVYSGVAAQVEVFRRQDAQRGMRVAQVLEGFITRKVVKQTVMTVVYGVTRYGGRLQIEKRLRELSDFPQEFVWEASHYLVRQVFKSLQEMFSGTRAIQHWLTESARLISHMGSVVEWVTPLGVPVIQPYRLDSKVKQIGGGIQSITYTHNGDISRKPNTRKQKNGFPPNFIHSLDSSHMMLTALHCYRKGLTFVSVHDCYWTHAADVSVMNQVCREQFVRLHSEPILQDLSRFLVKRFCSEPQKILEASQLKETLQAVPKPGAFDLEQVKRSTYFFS
610Bpa-mtRNAP (human), sequence (O00411 42-609): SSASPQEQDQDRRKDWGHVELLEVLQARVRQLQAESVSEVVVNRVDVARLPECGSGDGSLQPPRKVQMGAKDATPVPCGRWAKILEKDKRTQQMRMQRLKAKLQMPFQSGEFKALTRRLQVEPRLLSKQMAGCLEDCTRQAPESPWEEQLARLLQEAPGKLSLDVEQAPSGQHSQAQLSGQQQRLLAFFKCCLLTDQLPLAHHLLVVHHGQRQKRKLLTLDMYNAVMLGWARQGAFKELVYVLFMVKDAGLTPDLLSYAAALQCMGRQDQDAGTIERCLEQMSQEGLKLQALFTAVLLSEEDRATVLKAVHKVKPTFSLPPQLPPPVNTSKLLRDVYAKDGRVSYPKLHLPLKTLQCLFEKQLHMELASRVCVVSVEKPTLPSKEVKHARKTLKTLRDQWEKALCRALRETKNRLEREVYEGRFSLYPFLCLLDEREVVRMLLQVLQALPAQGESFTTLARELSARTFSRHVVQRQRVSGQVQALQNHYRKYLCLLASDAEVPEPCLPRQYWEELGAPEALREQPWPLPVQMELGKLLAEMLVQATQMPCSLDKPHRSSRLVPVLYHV
Δ150 mtRNAP (human mitochondrial RNA polymerase), sequence (O00411 151-1230, stated change not applied): as the sequence (O00411 151-1230, stated change not applied, one chain of several) above

## Bpa309 TEFM (from UniProt Q96QE5 36-360) (natural protein)
[1]
  cross-linking efficiency: > 30%

## Bpa310 TEFM (from UniProt Q96QE5 36-360) (natural protein)
[1]
  cross-linking efficiency: > 30%

## Bpa308 TEFM (from UniProt Q96QE5 36-360) (natural protein)
[1]
  cross-linking efficiency: > 30%

## Bpa312 TEFM (from UniProt Q96QE5 36-360) (natural protein)
[1]
  cross-linking efficiency: > 30%

B1: 32P-labeled TEFM (natural protein)
chain: KSTTPKKITPNVTFCDENAKEPENALDKLFSSEQQASILHVLNTASTKELEAFRLLRGRRSINIVEHRENFGPFQNLESLMNVPLFKYKSTVQVCNSILCPKTGREKRKSPENRFLRKLLKPDIERERLKAVNSIISIVFGTRRIAWAHLDRKLTVLDWQQSDRWSLMRGIYSSSVYLEEISSIISKMPKADFYVLEKTGLSIQNSSLFPILLHFHIMEAMLYALLNKTFAQDGQHQVLSMNRNAVGKHFELMIGDSRTSGKELVKQFLFDSILKADPRVFFPSDKIVHYRQMFLSTELQRVEELYDSLLQAIAFYELAVFDSQP
modifications: 32P-labeled
610Bpa-mtRNAP (human)
  cross-linking efficiency: 30%

B2: Δ135 TEFM (CTD with the inter-domain linker, residues 136-360) (domain or fragment, human, UniProt Q96QE5 136-360, looked up)
chain: PKTGREKRKSPENRFLRKLLKPDIERERLKAVNSIISIVFGTRRIAWAHLDRKLTVLDWQQSDRWSLMRGIYSSSVYLEEISSIISKMPKADFYVLEKTGLSIQNSSLFPILLHFHIMEAMLYALLNKTFAQDGQHQVLSMNRNAVGKHFELMIGDSRTSGKELVKQFLFDSILKADPRVFFPSDKIVHYRQMFLSTELQRVEELYDSLLQAIAFYELAVFDSQP
[2]
  binding result: binds
Crystal structure
  binding result: binds

B3: WT TEFM (human mitochondrial transcription elongation factor) (natural protein, UniProt Q96QE5 36-360, looked up)
chain: KSTTPKKITPNVTFCDENAKEPENALDKLFSSEQQASILHVLNTASTKELEAFRLLRGRRSINIVEHRENFGPFQNLESLMNVPLFKYKSTVQVCNSILCPKTGREKRKSPENRFLRKLLKPDIERERLKAVNSIISIVFGTRRIAWAHLDRKLTVLDWQQSDRWSLMRGIYSSSVYLEEISSIISKMPKADFYVLEKTGLSIQNSSLFPILLHFHIMEAMLYALLNKTFAQDGQHQVLSMNRNAVGKHFELMIGDSRTSGKELVKQFLFDSILKADPRVFFPSDKIVHYRQMFLSTELQRVEELYDSLLQAIAFYELAVFDSQP
SEC
  stoichiometry N: 2

B4: EC scaffold NT25HH/TS22HH/RNA14mt (mixed)
DNA 1: GAACATGGTGTAATTATTTCGACGCCAGACGAAC
DNA 2: GTTCGTCTGGCGTGCGCGCCGCTACACCATGTTC
RNA: AGUCUGCGGCGCGC
[3]
  binding result: binds

B5: cross-linking scaffold NT19HH/TS16HH/RNA14HH (mixed)
DNA 1: CATGGGGTAACTAGTTCGACGCCAGACG
DNA 2: CGTCTGGCGTGATCACGACTACCCCATG
RNA: UGAUGGUAAUGCUCCUGUCGUGAUC
mtRNAP Δ150;TEFM WT
  binding result: binds

Reference: publication PMC5798601 (Cell, 2017)
